In patent US10196657B2, “Methods of producing 7-carbon chemicals via methyl-ester shielded carbon chain elongation” (INVISTA North America S.á r.l., priority 2012, dated 2019):
One block for each molecule: values may come before it.

Assays:
[1] = ω-transaminase activity assay, reverse direction (7-aminoheptanoate to pimelate semialdehyde); format: biochemical; conditions: cell free extract, 10 mM 7-aminoheptanoate, 10 mM pyruvate, 25° C., 4 h; against empty vector control; FIG. 15
Method: (§1) A sequence encoding an N-terminal His-tag was added to the genes from Chromobacterium violaceum, Pseudomonas syringae, Rhodobacter sphaeroides, and Vibrio Fluvialis encoding the ω-transaminases of SEQ ID NOs: 8, 10, 11 and 13, respectively (see FIGS. 7F and 7G) such that N-terminal HIS tagged ω-transaminases could be produced. Each of the resulting modified genes was cloned into a pET21a expression vector under control of the T7 promoter and each expression vector was transformed into a BL21[DE3] E. coli host. The resulting recombinant E. coli strains were cultivated at 37° C. in a 250 mL shake flask culture containing 50 mL LB media and antibiotic selection pressure, with shaking at 230 rpm. Each culture was induced overnight at 16° C. using 1 mM IPTG.
(§2) The pellet from each induced shake flask culture was harvested via centrifugation. Each pellet was resuspended and lysed via sonication. The cell debris was separated from the supernatant via centrifugation and the cell free extract was used immediately in enzyme activity assays.
Enzyme activity assays in the reverse direction (i.e., 7-aminoheptanoate to pimelate semialdehyde) were performed in a buffer composed of a final concentration of 50 mM HEPES buffer (pH=7.5), 10 mM 7-aminoheptanoate, 10 mM pyruvate and 100 μM pyridoxyl 5′ phosphate. Each enzyme activity assay reaction was initiated by adding cell free extract of the ω-transaminase gene product or the empty vector control to the assay buffer containing the 7-aminoheptanoate and incubated at 25° C. for 4 h, with shaking at 250 rpm. The formation of L-alanine from pyruvate was quantified via RP-HPLC.

[2] = ω-transaminase activity assay, forward direction (pimelate semialdehyde to 7-aminoheptanoate); format: biochemical; conditions: concluded from reversibility of the ω-transaminase activity
Method: as §1, §2
Enzyme activity in the forward direction (i.e., pimelate semialdehyde to 7-aminoheptanoate) was confirmed for the transaminases of SEQ ID NO 10, SEQ ID NO 11 and SEQ ID NO 13. Enzyme activity assays were performed in a buffer composed of a final concentration of 50 mM HEPES buffer (pH=7.5), 10 mM pimelate semialdehyde, 10 mM L-alanine and 100 μM pyridoxyl 5′ phosphate. Each enzyme activity assay reaction was initiated by adding a cell free extract of the ω-transaminase gene product or the empty vector control to the assay buffer containing the pimelate semialdehyde and incubated at 25° C. for 4 h, with shaking at 250 rpm. The formation of pyruvate was quantified via RP-HPLC.

[3] = ω-transaminase activity assay, 7-aminoheptanol to 7-oxoheptanol; format: biochemical
Method: A nucleotide sequence encoding an N-terminal His-tag was added to the Chromobacterium violaceum, Pseudomonas syringae and Rhodobacter sphaeroides genes encoding the ω-transaminases of SEQ ID NOs: 8, 10 and 11, respectively (see FIGS. 7F and 7G) such that N-terminal HIS tagged ω-transaminases could be produced. The modified genes were cloned into a pET21a expression vector under the T7 promoter. Each expression vector was transformed into a BL21[DE3] E. coli host. Each resulting recombinant E. coli strain were cultivated at 37° C. in a 250 mL shake flask culture containing 50 mL LB media and antibiotic selection pressure, with shaking at 230 rpm. Each culture was induced overnight at 16° C. using 1 mM IPTG.
as §2
Enzyme activity assays in the reverse direction (i.e., 7-aminoheptanol to 7-oxoheptanol) were performed in a buffer composed of a final concentration of 50 mM HEPES buffer (pH=7.5), 10 mM 7-aminoheptanol, 10 mM pyruvate, and 100 μM pyridoxyl 5′ phosphate. Each enzyme activity assay reaction was initiated by adding cell free extract of the ω-transaminase gene product or the empty vector control to the assay buffer containing the 7-aminoheptanol and then incubated at 25° C. for 4 h, with shaking at 250 rpm. The formation of L-alanine was quantified via RP-HPLC.

[4] = Kaulmann et al., 2007; cited from earlier work
[5] = Carboxylate reductase activity assay, pimelate to pimelate semialdehyde (NADPH consumption); format: biochemical; conditions: purified enzyme enhanced by sfp gene product, 2 mM pimelate, room temperature, 20 min; against empty vector control; FIG. 10
Method: A sequence encoding a HIS-tag was added to the genes from Segniliparus rugosus and Segniliparus rotundus that encode the carboxylate reductases of SEQ ID NOs: 4 and 7, respectively (see FIGS. 7C and 7F), such that N-terminal HIS tagged carboxylate reductases could be produced. Each of the modified genes was cloned into a pET Duet expression vector along with a sfp gene encoding a HIS-tagged phosphopantetheine transferase from Bacillus subtilis, both under the T7 promoter. Each expression vector was transformed into a BL21[DE3] E. coli host and the resulting recombinant E. coli strains were cultivated at 37° C. in a 250 mL shake flask culture containing 50 mL LB media and antibiotic selection pressure, with shaking at 230 rpm. Each culture was induced overnight at 37° C. using an auto-induction media.
The pellet from each induced shake flask culture was harvested via centrifugation. Each pellet was resuspended and lysed via sonication, and the cell debris was separated from the supernatant via centrifugation. […]
Enzyme activity assays (i.e., from pimelate to pimelate semialdehyde) were performed in triplicate in a buffer composed of a final concentration of 50 mM HEPES buffer (pH=7.5), 2 mM pimelate, 10 mM MgCl2, 1 mM ATP and 1 mM NADPH. […] The consumption of NADPH was monitored by absorbance at 340 nm.

[6] = Haywood et al. 1988; Slater et al. 1998; cited from earlier work
[7] = Samsonova et al., 2003; cited from earlier work

acceptance of 7-aminoheptanoate as substrate (formation of L-alanine from pyruvate, RP-HPLC) [1]: accepted 7-aminoheptanote as substrate
acceptance of 7-aminoheptanol as substrate (formation of L-alanine, RP-HPLC) ([3]; cell free extract, 10 mM 7-aminoheptanol, 10 mM pyruvate, 25° C., 4 h, against empty vector control, FIG. 19): accepted 7-aminoheptanol as substrate
acceptance of 7-oxoheptanol as substrate, forming 7-aminoheptanol (concluded from reversibility) ([3]; concluded from reversibility of the ω-transaminase activity (Example 2)): accept 7-oxoheptanol as substrate
B1: SEQ ID NO 8: Chromobacterium violaceum ω-transaminase, Genbank Accession No. AAQ59697.1 (protein, listed as Chromobacterium violaceum)
chain: MQKQRTTSQWRELDAAHHLHPFTDTASLNQAGARVMTRGEGVYLWDSEGNKIIDGMAGLWCVNVGYGRKDFAEAARRQMEELPFYNTFFKTTHPAVVELSSLLAEVTPAGFDRVFYTNSGSESVDTMIRMVRRYWDVQGKPEKKTLIGRWNGYHGSTIGGASLGGMKYMHEQGDLPIPGMAHIEQPWWYKHGKDMTPDEFGVVAARWLEEKILEIGADKVAAFVGEPIQGAGGVIVPPATYWPEIERICRKYDVLLVADEVICGFGRTGEWFGHQHFGFQPDLFTAAKGLSSGYLPIGAVFVGKRVAEGLIAGGDFNHGFTYSGHPVCAAVAHANVAALRDEGIVQRVKDDIGPYMQKRWRETFSRFEHVDDVRGVGMVQAFTLVKNKAKRELFPDFGEIGTLCRDIFFRNNLIMRACGDHIVSAPPLVMTRAEVDEMLAVAERCLEEFEQTLKARGLA
acceptance of pimelate semialdehyde as substrate, synthesizing 7-aminoheptanoate (conclusion from confirmed reversibility) [2]: accepted pimelate semialdehyde as substrate
activity accepting 6-aminohexanoic acid as amino donor [4]: accepting 6-aminohexanoic acid as amino donor

acceptance of pimelate as substrate (NADPH consumption, absorbance at 340 nm) [5]: accepted pimelate as substrate
B2: SEQ ID NO 4: Segniliparus rugosus carboxylate reductase, Genbank Accession No. EFV11917.1 (protein, listed as Segniliparus rugosus)
chain: MGDGEERAKRFFQRIGELSATDPQFAAAAPDPAVVEAVSDPSLSFTRYLDTLMRGYAERPALAHRVGAGYETISYGELWARVGAIAAAWQADGLAPGDFVATVGFTSPDYVAVDLAAARSGLVSVPLQAGASLAQLVGILEETEPKVLAASASSLEGAVACALAAPSVQRLVVFDLRGPDASESAADERRGALADAEEQLARAGRAVVVETLADLAARGEALPEAPLFEPAEGEDPLALLIYTSGSTGAPKGAMYSQRLVSQLWGRTPVVPGMPNISLHYMPLSHSYGRAVLAGALSAGGTAHFTANSDLSTLFEDIALARPTFLALVPRVCEMLFQESQRGQDVAELRERVLGGRLLVAVCGSAPLSPEMRAFMEEVLGFPLLDGYGSTEALGVMRNGIIQRPPVIDYKLVDVPELGYRTTDKPYPRGELCIRSTSLISGYYKRPEITAEVFDAQGYYKTGDVMAEIAPDHLVYVDRSKNVLKLSQGEFVAVAKLEAAYGTSPYVKQIFVYGNSERSFLLAVVVPNAEVLGARDQEEAKPLIAASLQKIAKEAGLQSYEVPRDFLIETEPFTTQNGLLSEVGKLLRPKLKARYGEALEARYDEIAHGQADELRALRDGAGQRPVVETVVRAAVAISGSEGAEVGPEANFADLGGDSLSALSLANLLHDVFEVEVPVRIIIGPTASLAGIAKHIEAERAGASAPTAASVHGAGATRIRASELTLEKFLPEDLLAAAKGLPAADQVRTVLLTGANGWLGRFLALEQLERLARSGQDGGKLICLVRGKDAAAARRRIEETLGTDPALAARFAELAEGRLEVVPGDVGEPKFGLDDAAWDRLAEEVDVIVHPAALVNHVLPYHQLFGPNVVGTAEIIRLAITAKRKPVTYLSTVAVAAGVEPSSFEEDGDIRAVVPERPLGDGYANGYGNSKWAGEVLLREAHELVGLPVAVFRSDMILAHTRYTGQLNVPDQFTRLVLSLLATGIAPKSFYQQGAAGERQRAHYDGIPVDFTAEAITTLGAEPSWFDGGAGFRSFDVFNPHHDGVGLDEFVDWLIEAGHPISRIDDHKEWFARFETAVRGLPEAQRQHSLLPLLRAYSFPHPPVDGSVYPTGKFQGAVKAAQVGSDHDVPHLGKALIVKYADDLKALGLL

B3: β-ketothiolase encoded by bktB from Cupriavidus necator: β-ketothiolase classified under EC 2.3.1.16, gene product of bktB (protein, UniProt Q0KBP1 1-394, looked up)
Beta-ketothiolase BktB: MTREVVVVSGVRTAIGTFGGSLKDVAPAELGALVVREALARAQVSGDDVGHVVFGNVIQTEPRDMYLGRVAAVNGGVTINAPALTVNRLCGSGLQAIVSAAQTILLGDTDVAIGGGAESMSRAPYLAPAARWGARMGDAGLVDMMLGALHDPFHRIHMGVTAENVAKEYDISRAQQDEAALESHRRASAAIKAGYFKDQIVPVVSKGRKGDVTFDTDEHVRHDATIDDMTKLRPVFVKENGTVTAGNASGLNDAAAAVVMMERAEAERRGLKPLARLVSYGHAGVDPKAMGIGPVPATKIALERAGLQVSDLDVIEANEAFAAQACAVTKALGLDPAKVNPNGSGISLGHPIGATGALITVKALHELNRVQGRYALVTMCIGGGQGIAAIFERI
substrates accepted, forming the CoA-activated C7 aliphatic backbone [6]: accepts propanoyl-CoA and pentanoyl-CoA as substrates

B4: SEQ ID NO 12: Escherichia coli diamine ω-transaminase, Genbank Accession No. AAA57874.1 (protein, listed as Escherichia coli)
chain: MNRLPSSASALACSAHALNLIEKRTLDHEEMKALNREVIEYFKEHVNPGFLEYRKSVTAGGDYGAVEWQAGSLNTLVDTQGQEFIDCLGGFGIFNVGHRNPVVVSAVQNQLAKQPLHSQELLDPLRAMLAKTLAALTPGKLKYSFFCNSGTESVEAALKLAKAYQSPRGKFTFIATSGAFHGKSLGALSATAKSTFRKPFMPLLPGFRHVPFGNIEAMRTALNECKKTGDDVAAVILEPIQGEGGVILPPPGYLTAVRKLCDEFGALMILDEVQTGMGRTGKMFACEHENVQPDILCLAKALGGGVMPIGATIATEEVFSVLFDNPFLHTTTFGGNPLACAAALATINVLLEQNLPAQAEQKGDMLLDGFRQLAREYPDLVQEARGKGMLMAIEFVDNEIGYNFASEMFRQRVLVAGTLNNAKTIRIEPPLTLTIEQCELVIKAARKALAAMRVSVEEA
diamine substrate range [7]: accepts a broad range of diamine carbon chain length substrates
